Reference: PMC6608616 (IUCrJ, 2019)

B1: Tryptophan synthase β subunit (TrpB) from Francisella tularensis (enzyme)
chain: MSKLNAYFGEYGGQFVPQILVPALDQLEQEFIKAQADESFKQEFKELLQEYAGRPTALTKTRNIVKNTRTKLYLKREDLLHGGAHKTNQVLGQALLAKRMGKKEIIAETGAGQHGVATALACALLDLKCRVYMGAKDVERQSPNVFRMKLMGAEVIPVHSGSATLKDACNEALRDWSANYSKAHYLLGTAAGPHPFPTIVREFQRMIGEETKQQMLAKEGRLPDAVIACVGGGSNAIGMFADFIDEKNVKLIGVEPAGKGIETGEHGAPLKHGKTGIFFGMKAPLMQNSDGQIEESYSISAGLDFPSVGPQHAHLLAIGRAKYASATDDEALDAFKLLCKKEGIIPALESSHALAHALKLAYEDPNKEQLLVVNLSGRGDKDIFTVHDILKEKGEI
notes: also called FtTrpB; β subunit of FtTrpAB

Experiments:
[1] = target: B1; experiment: crystal structure; conditions: both partners purified
crystal structure = target: the molecule itself; experiment: crystal structure

| Binder | binding result [1] | binding result (crystal structure) |
| --- | --- | --- |
| Tryptophan synthase α subunit (TrpA) from Francisella tularensis (enzyme, also called FtTrpA; α subunit of FtTrpAB) SNAMTNRYTTLFANLEKRNEGAFIPFVTIGDPNKALSFEIIDTLVSSGADALELGIPFSDPLADGPTIQEANIRALESGITPKDCFDILTKIRAKYPHIPIGLLLYANLVYANGIENFYQKCLDAGVDSILIADVPAHESKEFRDIAKKVGIAQIFIAPPDASESTLKQISELGSGYTYLLSRVGVTGTETAANMPVEDVLTKLREYNAPKPVLGFGISKPEQVQQAIKAGAAGAISGSATVKIIQNNISNKQKMLNELTYFVKEMKAATLN | binds |  |
| B1 |  | binds |
